Source: patent US20160122429A1

Key:
Experiment in all cases: cell-based or functional assay
[1] = molecular target: human TNFα (soluble) (human) (UniProt P01375)
[2] = molecular target: human non-cleavable membrane bound TNFα on CHO cells (human) (UniProt P01375)
human IL-23 (human) = human IL-23 (human) (UniProt Q9NPF7)
human IL-23 (human), sequence (Q9NPF7 20-189, chain 1 of 2): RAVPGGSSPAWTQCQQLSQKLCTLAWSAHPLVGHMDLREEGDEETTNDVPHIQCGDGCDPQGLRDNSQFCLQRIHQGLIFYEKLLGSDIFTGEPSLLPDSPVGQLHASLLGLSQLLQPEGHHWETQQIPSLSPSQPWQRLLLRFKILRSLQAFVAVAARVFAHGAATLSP
human IL-23 (human), sequence (P29460 23-328, chain 2 of 2, further chain): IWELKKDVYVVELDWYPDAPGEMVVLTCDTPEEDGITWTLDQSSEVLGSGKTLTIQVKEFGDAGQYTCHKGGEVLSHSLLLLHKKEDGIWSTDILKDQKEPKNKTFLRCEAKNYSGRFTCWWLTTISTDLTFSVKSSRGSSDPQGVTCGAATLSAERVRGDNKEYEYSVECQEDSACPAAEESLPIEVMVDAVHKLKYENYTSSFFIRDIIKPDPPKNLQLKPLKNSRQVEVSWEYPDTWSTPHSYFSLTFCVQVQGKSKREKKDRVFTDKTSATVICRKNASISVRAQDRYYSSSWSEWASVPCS

human TNFα (soluble) (human), sequence (P01375 77-233 limits assumed): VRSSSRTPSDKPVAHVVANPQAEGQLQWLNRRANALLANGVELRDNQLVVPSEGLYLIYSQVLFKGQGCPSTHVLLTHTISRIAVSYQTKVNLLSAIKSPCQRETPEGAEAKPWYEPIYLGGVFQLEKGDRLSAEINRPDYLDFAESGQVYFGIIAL
human non-cleavable membrane bound TNFα on CHO cells (human), sequence (P01375 whole entry): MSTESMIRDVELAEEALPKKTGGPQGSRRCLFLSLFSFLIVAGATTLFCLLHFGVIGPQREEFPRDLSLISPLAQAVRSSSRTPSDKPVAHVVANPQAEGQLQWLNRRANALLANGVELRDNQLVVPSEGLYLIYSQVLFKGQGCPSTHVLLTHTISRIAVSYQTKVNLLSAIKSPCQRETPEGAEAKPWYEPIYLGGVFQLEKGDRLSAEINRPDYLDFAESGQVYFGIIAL

Substance: Adalimumab with IgG1 isotype (parental TNFα antibody)
- CXCL1 Level (pg/mL) in plasma of mice challenged with human TNFα [1]: 633 pg/mL
- inhibition of killing of L929 cells by human non-cleavable membrane bound TNFα CHO cells (IC50, MTT assay) [2]: 581 pM

Substance: human IgG1 isotype control antibody
- mIL22 Level (pg/mL) in plasma of mice challenged with human IL-23 (human IL-23 (human)): 132 pg/mL
- CXCL1 Level (pg/mL) in plasma of mice challenged with human TNFα [1]: 2420 pg/mL
